For test [1], the target named is T1, cynomolgus complement C3b protein (cynomolgus monkey (Macaca fascicularis)).
T1 construct: also called cyno C3b; cynoC3b
Put plainly: solution equilibrium titration (SET), ECL detection, Fab.

The target in test [2] is T1, cynomolgus complement C3b protein. Put plainly: cell-based or functional assay.
For test [3] the target is unchanged. Put plainly: SPR (Biacore), C3b captured by anti-C3d antibody, Fab as analyte.
The next test concerns the target T2, human C5 (human, UniProt P01031 19-673; P01031 678-1676).
T2 construct: Captured by an anti-C5 antibody in the ELISA
The experiment in a line: cross reactivity, capture ELISA with anti-C5 capture antibody, anti-His detection. On the technique in general: An ELISA detects its analyte on a solid surface through an enzyme-linked reagent.

Test [4] deals with T1, cynomolgus complement C3b protein. The experiment in a line: SPR (Biacore T100), C3b captured by anti-C3d antibody, IgG as analyte, 1:1 model. A general note: In SPR one partner is held on a chip, and binding of the other changes the refractive index at the surface.
For test [5], the target named is T3, human C3d (human, UniProt P01024 1002-1303).
T3 construct: domain: C3d
Put plainly: cross reactivity, ELISA on C3d, anti-His detection. As to the method: In order to determine whether the anti-C3b antibodies described herein can bind to complement pathway components iC3b and C3c, the following steps were performed: Directly add iC3b(complement Technologies A115), C3d (complement Technologies A117), or C3c (complement Technologies A116), at 2 μg/ml in Carbonate Buffer onto Coat Maxisorp plate Nunc (442404) at 100 μl per well. Seal plates and incubate at 4° C. overnight. Aspirate plates and wash 3 times with PBS/0.5% Tween 20. Block plates with Diluent (PBS, 4% BSA Fraction V (Fisher ICN16006980), 0.1% Tween 20 (Sigma P1379), 0.1% Triton X-100 (Sigma P234729)) and incubate for 2 h at room temperature or overnight at 4° C. Then wash plates once with PBS/0.5% Tween 20. Dilute Fabs at 100 nM and subsequent dilutions (or higher concentration if needed) in diluent and plate 100 μl per well. Incubate at room temperature for 1 h. Wash plates 3 times with PBS/0.5% Tween 20. Add 100 μl/well of anti-Histidine-HRP monoclonal detection antibody at 1:400 in diluent and incubate at room temperature for 1 h. Then wash 4 times with PBS/0.5% Tween 20. Add 100 μl of TMB substrate (Pierce 34028) and incubate at room temperature for up to 5 min. Add 50 μl of Stop solution (2N Sulfuric Acid) to each well and read plate at 450 nm and correct for plastic reading at 570 nm.

In test [6] the target is T4, human complement C3b protein (human, UniProt P01024 23-667; P01024 749-1663).
T4 construct: Purified plasma C3b (Complement Technology, Quidel); Depending on the assay it was captured by an anti-C3d antibody, coated, biotinylated or coupled to beads; also called human C3b; huC3b
The experiment in a line: solution equilibrium titration (SET), ECL detection, Fab.

For test [7], the target named is T4, human complement C3b protein. The experiment in a line: cell-based or functional assay.
Test [8] shares this target. Put plainly: SPR (Biacore), C3b captured by anti-C3d antibody, Fab as analyte.
Test [9] shares this target. The experiment in a line: cell-based or functional assay. The source holds these as a separate data set.
Test [10] concerns the target T3, human C3d. The experiment in a line: C3d binding ELISA, IgG titrated from about 0.006 to 100 nM.
Test [11] concerns the target T4, human complement C3b protein. The experiment in a line: SPR (Biacore T100), C3b captured by anti-C3d antibody, IgG as analyte, 1:1 model.
For test [12] the target is unchanged. Put plainly: AlphaScreen bead proximity, C3b-Acceptor beads pre-incubated with antibody, then biotinylated fH and SA-Donor beads; blocked ligand: fH [C]. The procedure: In brief, purified C3b and fP were conjugated to unconjugated acceptor or donor beads (PerkinElmer) using AminoLink Reductant (Pierce) during a 48 h incubation at room temperature. Beads were quenched using Carboxymethoxylamine Hemihydrochloride (Aldrich), and purified by centrifugation at 13000 rpm and three washes with 0.1M TBST. Purified fB(D24G/N260D) and fH were biotinylated during a 30 min incubation with 20-fold molar excess of NHS-Chromogenic-biotin (Pierce) at room temperature, and purified using Zeba 0.5 ml desalting columns (Pierce).
For C3b-C3b and C3b-fP proximity, Fabs or IgGs respectively were pre-incubated with C3b-Acceptor beads (20 μg/ml) for 60 min at room temperature. C3b-Donor beads or fP-Donor beads (20 μg/ml) were then added, and the plate was incubated overnight at room temperature before reading. For C3b-fB and C3b-fH proximity, antibodies were pre-incubated with C3b-Acceptor beads (20 μg/ml) for 60 minutes at room temperature. Biotinylated fB(D24G/N260D) or fH were then added, and incubated for 60 minutes at room temperature. SA-Donor beads were then added (20 μg/ml) and the plate was incubated overnight at room temperature before reading. Plates were read on the BMG Pherastar (ex=680, em=520-620).
A general note: Alpha assays give light when donor and acceptor beads are brought close together.

Test [13] shares this target. Put plainly: ELISA, C3b or C3 captured by anti-C3d antibody. The procedure:
The C3b antibodies were examined to determine whether they were selective for binding to C3b relative to the C3b precursor C3. Briefly, binding selectivity for C3b was determined by performing the following steps. Coat Maxisorp plate Nunc (442404) with anti-C3d rabbit monoclonal (abcam 17453) at 2 μg/ml in Carbonate Buffer at 100 μl/well. Seal plates and incubate at 4° C. overnight. Aspirate plates and wash 3 times with PBS/0.5% Tween 20. Block plates with Diluent (PBS, 4% BSA Fraction V (Fisher ICN16006980), 0.1% Tween 20 (Sigma P1379), 0.1% Triton X-100 (Sigma P234729)) and incubate for 2 h at room temperature or overnight at 4° C. Then wash plates once with PBS/0.5% Tween 20. Dilute purified C3b (complement technologies A114 lot 21) and C3 (complement technologies A113c) at 1 μg/ml in diluent and plate 100 μl per well. Incubate for 1 h at room temperature. Then wash 3 times with PBS/0.5% Tween 20.
Dilute Fabs at 100 nM and subsequent dilutions (or higher concentration) in diluent and plate 100 μl per well. Incubate at room temperature for 1 h. Wash plates 3 times with PBS/0.5% Tween 20. Add 100 μl/well of anti-Histidine-HRP monoclonal detection antibody at 1:400 in diluent and incubate at room temperature for 1 h. Then wash 4 times with PBS/0.5% Tween 20. Add 100 μl of TMB substrate (Pierce 34028) and incubate at room temperature for up to 5 min. Add 50 μl of Stop solution (2N Sulfuric Acid) to each well and read plate at 450 nm and correct for plastic reading at 570 nm.

As usually defined, the Kd is a measure of binding affinity in units of concentration. In general, koff refers to a measure of how fast the partners let go of each other. One may read the kon as the rate constant with which the complex forms.

T3 sequence (P01024 1002-1303 limits assumed): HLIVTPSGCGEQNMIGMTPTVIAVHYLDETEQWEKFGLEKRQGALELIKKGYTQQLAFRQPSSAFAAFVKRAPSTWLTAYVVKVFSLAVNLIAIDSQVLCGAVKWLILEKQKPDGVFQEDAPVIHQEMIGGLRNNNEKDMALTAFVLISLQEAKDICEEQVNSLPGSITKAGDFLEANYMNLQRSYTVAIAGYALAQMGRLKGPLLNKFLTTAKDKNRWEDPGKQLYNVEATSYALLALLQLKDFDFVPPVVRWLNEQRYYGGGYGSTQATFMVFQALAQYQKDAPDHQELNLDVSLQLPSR
T2 sequence (P01031 19-673 limits assumed, chain 1 of 2): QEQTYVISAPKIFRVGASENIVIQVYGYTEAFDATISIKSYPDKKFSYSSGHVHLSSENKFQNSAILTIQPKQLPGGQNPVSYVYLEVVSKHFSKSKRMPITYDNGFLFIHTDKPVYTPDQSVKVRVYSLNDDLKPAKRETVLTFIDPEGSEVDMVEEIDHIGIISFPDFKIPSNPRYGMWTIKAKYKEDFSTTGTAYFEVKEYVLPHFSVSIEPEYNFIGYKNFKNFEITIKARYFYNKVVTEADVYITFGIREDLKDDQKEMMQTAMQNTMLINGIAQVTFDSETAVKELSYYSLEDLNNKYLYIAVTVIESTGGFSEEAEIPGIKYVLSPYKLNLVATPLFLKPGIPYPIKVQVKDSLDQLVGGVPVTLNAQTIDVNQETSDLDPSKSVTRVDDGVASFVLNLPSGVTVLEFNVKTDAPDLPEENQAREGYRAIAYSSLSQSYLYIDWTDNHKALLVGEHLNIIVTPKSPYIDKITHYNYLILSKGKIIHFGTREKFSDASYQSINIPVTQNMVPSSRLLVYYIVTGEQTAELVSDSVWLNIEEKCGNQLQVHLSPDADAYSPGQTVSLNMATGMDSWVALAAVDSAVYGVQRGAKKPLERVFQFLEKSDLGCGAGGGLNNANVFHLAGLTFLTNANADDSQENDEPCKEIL
T2 sequence (P01031 678-1676 limits assumed, chain 2 of 2): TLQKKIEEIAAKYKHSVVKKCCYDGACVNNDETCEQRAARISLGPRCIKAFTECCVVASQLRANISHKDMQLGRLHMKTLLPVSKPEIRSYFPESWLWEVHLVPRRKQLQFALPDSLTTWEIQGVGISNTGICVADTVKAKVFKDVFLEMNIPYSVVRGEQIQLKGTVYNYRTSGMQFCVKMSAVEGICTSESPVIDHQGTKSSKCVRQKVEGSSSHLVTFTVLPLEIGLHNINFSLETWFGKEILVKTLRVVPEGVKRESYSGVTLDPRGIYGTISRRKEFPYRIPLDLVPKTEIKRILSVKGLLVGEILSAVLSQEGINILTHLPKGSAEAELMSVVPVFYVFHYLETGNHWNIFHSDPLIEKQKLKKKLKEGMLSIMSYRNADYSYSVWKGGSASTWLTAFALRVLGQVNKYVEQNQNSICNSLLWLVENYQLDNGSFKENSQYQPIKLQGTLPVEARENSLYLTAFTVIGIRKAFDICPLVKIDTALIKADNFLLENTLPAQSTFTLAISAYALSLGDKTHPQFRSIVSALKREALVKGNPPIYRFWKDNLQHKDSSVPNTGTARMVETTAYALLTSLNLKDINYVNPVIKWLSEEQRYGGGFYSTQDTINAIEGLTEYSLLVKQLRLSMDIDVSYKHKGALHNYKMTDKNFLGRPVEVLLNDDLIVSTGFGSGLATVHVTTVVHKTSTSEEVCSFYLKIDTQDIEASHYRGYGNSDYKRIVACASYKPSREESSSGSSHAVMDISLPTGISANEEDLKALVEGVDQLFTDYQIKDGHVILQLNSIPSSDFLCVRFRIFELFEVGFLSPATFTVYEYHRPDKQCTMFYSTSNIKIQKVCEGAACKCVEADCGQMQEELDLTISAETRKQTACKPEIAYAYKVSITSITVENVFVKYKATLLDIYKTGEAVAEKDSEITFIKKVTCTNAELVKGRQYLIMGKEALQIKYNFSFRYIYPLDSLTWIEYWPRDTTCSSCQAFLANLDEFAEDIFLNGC
T4 sequence (P01024 23-667 P314L, chain 1 of 2): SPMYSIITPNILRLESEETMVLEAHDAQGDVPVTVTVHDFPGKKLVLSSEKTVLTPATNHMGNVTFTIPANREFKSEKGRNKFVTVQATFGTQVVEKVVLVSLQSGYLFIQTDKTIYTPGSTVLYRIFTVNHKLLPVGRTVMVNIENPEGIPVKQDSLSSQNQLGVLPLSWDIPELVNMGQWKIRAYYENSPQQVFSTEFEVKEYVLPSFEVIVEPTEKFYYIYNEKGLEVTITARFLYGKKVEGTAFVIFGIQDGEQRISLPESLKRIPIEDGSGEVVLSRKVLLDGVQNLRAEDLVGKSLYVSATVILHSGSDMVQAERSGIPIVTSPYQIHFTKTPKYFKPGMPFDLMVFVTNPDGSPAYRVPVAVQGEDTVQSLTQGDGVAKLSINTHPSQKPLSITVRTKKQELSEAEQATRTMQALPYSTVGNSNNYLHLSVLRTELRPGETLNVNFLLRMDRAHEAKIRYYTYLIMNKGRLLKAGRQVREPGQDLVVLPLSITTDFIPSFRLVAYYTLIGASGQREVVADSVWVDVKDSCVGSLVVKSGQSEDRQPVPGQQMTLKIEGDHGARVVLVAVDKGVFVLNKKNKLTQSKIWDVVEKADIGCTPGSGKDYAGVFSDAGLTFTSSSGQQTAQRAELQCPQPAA
T4 sequence (P01024 749-1663, chain 2 of 2): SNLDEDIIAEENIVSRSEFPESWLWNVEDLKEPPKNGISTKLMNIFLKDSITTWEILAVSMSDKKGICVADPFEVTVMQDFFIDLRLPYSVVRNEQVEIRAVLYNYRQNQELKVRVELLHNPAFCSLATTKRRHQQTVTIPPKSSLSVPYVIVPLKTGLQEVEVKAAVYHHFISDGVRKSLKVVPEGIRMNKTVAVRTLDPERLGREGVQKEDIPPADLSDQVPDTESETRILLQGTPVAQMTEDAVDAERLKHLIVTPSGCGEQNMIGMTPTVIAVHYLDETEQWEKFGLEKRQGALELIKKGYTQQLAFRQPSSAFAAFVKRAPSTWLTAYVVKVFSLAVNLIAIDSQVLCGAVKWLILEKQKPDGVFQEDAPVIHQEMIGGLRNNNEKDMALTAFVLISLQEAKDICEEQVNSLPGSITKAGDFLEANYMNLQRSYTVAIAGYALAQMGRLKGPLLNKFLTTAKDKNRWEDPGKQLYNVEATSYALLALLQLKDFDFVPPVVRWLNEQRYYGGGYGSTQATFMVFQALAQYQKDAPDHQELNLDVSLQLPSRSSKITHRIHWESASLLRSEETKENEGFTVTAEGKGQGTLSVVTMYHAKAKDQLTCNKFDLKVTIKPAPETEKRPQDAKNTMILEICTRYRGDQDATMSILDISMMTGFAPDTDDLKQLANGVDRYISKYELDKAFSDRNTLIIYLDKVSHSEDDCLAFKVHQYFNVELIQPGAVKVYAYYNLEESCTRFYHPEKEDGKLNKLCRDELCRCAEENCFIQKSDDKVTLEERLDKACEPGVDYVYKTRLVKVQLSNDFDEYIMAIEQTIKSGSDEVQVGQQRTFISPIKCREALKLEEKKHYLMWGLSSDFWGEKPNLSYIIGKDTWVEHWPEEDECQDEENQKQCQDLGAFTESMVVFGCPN

B1: MOR09373 Fab (Fab, V domains shown)
VH: QVQLVQSGAEVKKPGASVKVSCKASGYTFTSYSMHWVRQAPGQGLEWMGLINPYNGNTHYAQKFQGRVTMTRDTSISTAYMELSSLRSEDTAVYYCARMLRFDVWGQGTLVTVSS
VL: DIALTQPASVSGSPGQSITISCTGTSSDGGGYNYVSWYQQHPGKAPKLMIYGVSNRPSGVSNRFSGSKSGNTASLTISGLQAEDEADYYCQTYTRYSDSPVFGGGTKLTVLG
notes: also called Fab 9373
On to B1, for which the dissociation constant (Kd) in [1] worked out at 0.078 nM. In addition, in test [2], the “C3b Dep (nM), cyno serum, IC50” value is 5 nM; the “HA (nM), 10% cyno serum, IC50” value was found to be 62 nM; the “MAC Dep (nM), cyno serum, IC50” value amounted to 6 nM. This molecule also came in with an equilibrium dissociation constant (Kd) in [3] of 0.009 nM. For the same molecule, in the test with human C5, the binding result is on record as “no binding”.

B2: MOR09674 IgG (antibody, V domains shown)
VH: EVQLVQSGAEVKKPGASVKVSCKASGYTFTSYSMHWVRQAPGQGLEWMGLINPYNGNTHYAQKFQGRVTMTRDTSISTAYMELSSLRSEDTAVYYCARMLRFDVWGQGTLVTVSS
VL: ESALTQPASVSGSPGQSITISCTGTSSDGGGYNYVSWYQQHPGKAPKLMIYGVSNRPSGVSNRFSGSKSGNTASLTISGLQAEDEADYYCQTYTRYSDSPVFGGGTKLTVLG
notes: Germlined human IgG1 with leucines 234 and 235 changed to alanines, lambda; also called antibody 9674
In [4], B2 displayed a Kd of 0.00713 nM, a koff of 5.95e-05 s⁻¹ and a kon of 8.34e+06 M⁻¹ s⁻¹.

B3: MOR09136 Fab (Fab, V domains shown)
VH: QVQLVQSGAEVKKPGSSVKVSCKASGGTFSSYTFSWVRQAPGQGLEWMGNILPIFGDANYAQKFQGRVTITADESTSTAYMELSSLRSEDTAVYYCARNKGAFYYMSTYPSLDVWGQGTLVTVSS
VL: DIQMTQSPSSLSASVGDRVTITCRASQNINYYLNWYQQKPGKAPKLLIYDAFSLQSGVPSRFSGSGSGTDFTLTISSLQPEDFATYYCQQSWSVPPFTFGQGTKVEIKR
notes: also called Fab 9136
With B3, the binding result in the test with human C3d [5] and in the test with human C5 was “no binding” each time. Further, the Kd in [6] came out at 0.096 nM; in test [1], 0.016 nM; in test [8], 0.075 nM; in test [3] it was 0.005 nM. Also, the “C3b Dep (nM), human serum, IC50” value in test [7] was determined as 8 nM. Further, in test [7], the “HA (nM), 10% human serum, IC50” value stood at 32 nM. The “MAC Dep (nM), human serum, IC50” value in test [7] turned out to be 2 nM. The “C3b Dep (nM), cyno serum, IC50” value in test [2] is 3 nM. The “HA (nM), 10% cyno serum, IC50” value in [2] was found to be 52 nM. In addition, the “MAC Dep (nM), cyno serum, IC50” value in [2] was found to be 3 nM.

B4: MOR09609 IgG (antibody, V domains shown)
VH: EVQLVQSGAEVKKPGSSVKVSCKASGGTFSSYTFSWVRQAPGQGLEWMGNILPIFGDANYAQKFQGRVTITADESTSTAYMELSSLRSEDTAVYYCARNKGAFYYMSTYPSLDVWGQGTLVTVSS
VL: DIQMTQSPSSLSASVGDRVTITCRASQNINYYLNWYQQKPGKAPKLLIYDAFSLQSGVPSRFSGSGSGTDFTLTISSLQPEDFATYYCQQSWSVPPFTFGQGTKVEIKR
notes: Germlined human IgG1 with leucines 234 and 235 changed to alanines, kappa; also called antibody 9609
With B4, in [9], the “MAC deposition on zymosan, IC50” value was at most 5 nM; the “hemolysis of rabbit red blood cells, 10% human or cynomolgus serum, IC50” value was at most 50 nM; the “inhibition of C3a and C5a generation during hemolysis, IC50” value was at most 50 nM. In addition, in the test with human C3d [10], the binding result was “no binding (tested: 100 nM)”. In test [11], the Kd is 0.0022 nM, the koff turned out to be 3.16e-06 s⁻¹ and the on-rate (kon) amounted to 1.44e+06 M⁻¹ s⁻¹. In [4], binding was characterised by a dissociation constant (Kd) of 0.0228 nM, the koff worked out at 4.6e-05 s⁻¹ and the on-rate (kon) came out at 2.02e+06 M⁻¹ s⁻¹. For the same molecule, the “IC50 (read off the curve)” value in [12] is about 0.1 nM. In test [13], the “fold binding selectivity for C3b over C3” value is over 1000 fold.

B5: MOR09141 Fab (Fab, V domains shown)
VH: QVQLVQSGAEVKKPGSSVKVSCKASGGTFSSYTFSWVRQAPGQGLEWMGNILPIFGDANYAQKFQGRVTITADESTSTAYMELSSLRSEDTAVYYCARNKGAFYYMSTYPSLDVWGQGTLVTVSS
VL: DIQMTQSPSSLSASVGDRVTITCRASQNINYYLNWYQQKPGKAPKLLIYDAFSLQSGVPSRFSGSGSGTDFTLTISSLQPEDFATYYCQQSIAVPPFTFGQGTKVEIKR
notes: also called Fab 9141
For B5, the binding result with human C3d [5] and in the test with human C5 was “no binding” each time. The equilibrium dissociation constant (Kd) in test [6] was 0.1 nM; in test [1], 0.02 nM; in test [8], 0.039 nM; in [3], 0.004 nM. Further, the “C3b Dep (nM), human serum, IC50” value in test [7] stood at 7 nM. In addition, in test [7], the “HA (nM), 10% human serum, IC50” value is 27 nM. Besides, the “MAC Dep (nM), human serum, IC50” value in test [7] worked out at 1 nM. In test [2], the “C3b Dep (nM), cyno serum, IC50” value worked out at 9 nM. The “HA (nM), 10% cyno serum, IC50” value in [2] turned out to be 43 nM. For the same molecule, the “MAC Dep (nM), cyno serum, IC50” value in test [2] stood at 2 nM.

B6: MOR09610 IgG (antibody, V domains shown)
VH: EVQLVQSGAEVKKPGSSVKVSCKASGGTFSSYTFSWVRQAPGQGLEWMGNILPIFGDANYAQKFQGRVTITADESTSTAYMELSSLRSEDTAVYYCARNKGAFYYMSTYPSLDVWGQGTLVTVSS
VL: DIQMTQSPSSLSASVGDRVTITCRASQNINYYLNWYQQKPGKAPKLLIYDAFSLQSGVPSRFSGSGSGTDFTLTISSLQPEDFATYYCQQSIAVPPFTFGQGTKVEIKR
notes: Germlined human IgG1 with leucines 234 and 235 changed to alanines, kappa; also called antibody 9610
B6: in [9], the “MAC deposition on zymosan, IC50” value is at most 5 nM; the “hemolysis of rabbit red blood cells, 10% human or cynomolgus serum, IC50” value is at most 50 nM; the “inhibition of C3a and C5a generation during hemolysis, IC50” value was at most 50 nM. The binding result in the test with human C3d [10] was “no binding (tested: 100 nM)”. Moreover, in [11], the Kd was found to be 0.0049 nM, the koff came out at 4.02e-06 s⁻¹ and the kon worked out at 820000 M⁻¹ s⁻¹. In test [4], this molecule had a dissociation constant (Kd) of 0.0335 nM, a koff of 6.41e-05 s⁻¹ and a kon of 1.91e+06 M⁻¹ s⁻¹. Further, the “IC50 (read off the curve)” value in test [12] is about 0.2 nM. In addition, in test [13], the “fold binding selectivity for C3b over C3” value is over 1000 fold.

Values taken from patent US20100291106A1 (Novartis, published 2010).
